Target: T1, myc-tagged Tsg101 (residues 1-207) (human, UniProt Q99816 1-207)
T1 construct: range 1-207; Used as Drosophila S2 cell lysate, not purified; The tag is placed N-terminal from the name myc-Tsg101; also called myc-Tsg101(1-207); myc-Tsg101 (1-207)
T1 sequence: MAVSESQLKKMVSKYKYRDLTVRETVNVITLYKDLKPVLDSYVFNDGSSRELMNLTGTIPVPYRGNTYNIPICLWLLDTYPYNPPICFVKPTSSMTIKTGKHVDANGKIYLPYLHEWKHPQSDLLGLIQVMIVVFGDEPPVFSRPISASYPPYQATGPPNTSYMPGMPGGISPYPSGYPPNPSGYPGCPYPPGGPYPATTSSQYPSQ
Experiment: plate competition assay, competitor of coated GST-p6 for myc-Tsg101(1-207)

B1: p6(1-14) peptide (GAGp6 peptide containing the first 14 amino acid residues) (peptide)
peptide: LQSRPEPTAPPEES
notes: also called first 14 amino acid residues of HIV GAGp6
Q: Does B1 bind?
A: Result: binds

From patent US20040109861A1 (MYRIAD GENETICS, published 2004)
